Assay results reported in paper PMC3791464 (eLife, 2013).

B1: GFP–Orc6 wild type (fly transgene) [Drosophila melanogaster] / Drosophila Orc2, endogenous in fly ovaries [Drosophila (endogenous in fly ovaries)] (parent)
chain 1: MTTLIEQLITKMGLREEPNVLEKTTELVRLLELRSTNVPLQINEYGKIVLCADLASCMIGIAFDKEQALKLSGLRKSQYLNNKRMFEKLLDLNKLASVNDICVQLGLNEVARKAEELMTLFKGVAATEDMGTDTSHPQYATMAVFQACRLLKKKVSKSKLMPFSNLRPSQFQLLEQQWERMIAKHHKESKVPSSTDMEGKLKENQNENIKGHEAKKAHKPPPEDYEIWKARMLAKAQAKLKELEASQSHMDSQLLEA
chain 2: MSASNKGGYKTPRKENLMSIENLTNSEEESEDLNTAMVGNAVESQPKVTSRRSTRRPSPTKKYQAYQKESNGKGQEERIVVNYVEMSDERSSDAEDQEEEESIEESENAARPAAKDLHLIQSEYNVAGTSMFGFNTPKKRDAMALAALNATPCTPKTPKTPRLGVKTPDTKRKKSMDQPKTPAHVRTRVKKQIAKIVADSDEDFSGDESDFRPSDEESSSSSSSSDAGNSSDNDAADDEPKTPSRARRAIVVPVLPKTPSAARLRQSARAKKSNEFVPESDGYFHSHASSKILTSDHTLDRLKNPRLAADRVFSLLSEIKTSAEHEGSINAIMEEYRSYFPKWMCILNEGFNILLYGLGSKHQLLQSFHREVLHKQTVLVVNGFFPSLTIKDMLDSITSDILDAGISPANPHEAVDMIEEEFALIPETHLFLIVHNLDGAMLRNVKAQAILSRLARIPNIHLLASIDHINTPLLWDQGKLCSFNFSWWDCTTMLPYTNETAFENSLLVQNSGELALSSMRSVFSSLTTNSRGIYMLIVKYQLKNKGNATYQGMPFRDLYSSCREAFLVSSDLALRAQLTEFLDHKLVKSKRSVDGSEQLTIPIDGALLQQFLEEQEKK

Variants of: B1
Assay: GFP fluorescence of anti-Orc2 immunoprecipitates
Settings: with Drosophila Orc2, endogenous in fly ovaries [Drosophila (endogenous in fly ovaries)]; fly ovary extracts; three independent experiments; read off a plot
Variant chain 1 D224A Y225A has a response (arbitrary units) of 550. Work on chain 1 W228A K229A yielded a response (arbitrary units) of 470.
